Data: patent publication US20120178701A1 (PALATIN TECHNOLOGIES, published 2012)
Numbered stars: 1 amine (or outer) side, 2 acyl side, 3 side chain; on linkers, the order of the positions; unused ones are H or OH. Bridge positions count the residues as written; N and C are the ends. Square brackets hold non-standard residues; d marks the D form. * marks the point of attachment. Hyp(Bzl) = O-benzyl-hydroxyproline, O=C([C@@H]1C[C@@H](OCc2ccccc2)CN1[*:1])[*:2]; Thr(Bzl) = O-benzyl-threonine, C[C@@H](OCc1ccccc1)[C@H](N[*:1])C(=O)[*:2]; Pro(trans-4-NH2) = O=C([C@@H]1C[C@@H](N[*:3])CN1[*:1])[*:2]; Phe(3-CONH2) = NC(=O)c1cccc(C[C@H](N)C(=O)O)c1; Phe(4-CONH2) = NC(=O)c1ccc(C[C@H](N)C(=O)O)cc1; Met(O2) = CS(=O)(=O)CC[C@H](N)C(=O)O; Hyp = O=C(O)[C@@H]1C[C@@H](O)CN1; Met(O) = CS(=O)CC[C@H](N)C(=O)O; Cit = NC(=O)NCCC[C@H](N)C(=O)O; Orn = NCCC[C@H](N)C(=O)O; Dab = NCC[C@H](N)C(=O)O; Pentanoyl = CCCCC(=O)*

B1: Ac-Arg-cyclo(Asp-Hyp-D-Phe-Arg-Trp-Lys)-NH2 (peptide)
peptide: Ac-RD[Hyp][dF]RWK-NH2
modifications: lactam 2-7
notes: also called peptide No. 79
B2: Ac-Arg-cyclo(Lys-Dab-D-Phe-Arg-Trp-Asp)-NH2 (peptide)
peptide: RKXFRWD
HELM: PEPTIDE1{[ac].R.K.[Dab].[dF].R.W.D.[am]}$PEPTIDE1,PEPTIDE1,3:R3-8:R3$$$V2.0
SMILES: CC(=O)N[C@@H](CCCNC(=N)N)C(=O)N[C@H]1CCCCNC(=O)C[C@@H](C(N)=O)NC(=O)[C@H](Cc2c[nH]c3ccccc23)NC(=O)[C@H](CCCNC(=N)N)NC(=O)[C@@H](Cc2ccccc2)NC(=O)[C@H](CCN)NC1=O
notes: also called peptide No. 121
B3: Ac-Arg-cyclo(Orn-His-D-Phe-Arg-Trp-Glu)-NH2 (peptide)
peptide: Ac-R[Orn]H[dF]RWE-NH2
modifications: lactam 2-7
notes: also called peptide No. 75
B4: Ac-Arg-cyclo(hGlu-Gln-D-Phe-Arg-Trp-Dab)-NH2 (peptide)
peptide: RXQFRWX
modifications: N-acetyl; X2 = hGlu; D-Phe 4; X7 = Dab; side-chain lactam hGlu2-Dab7; C-terminal amide
notes: also called peptide No. 147
B5: Ac-Arg-cyclo(hGlu-Met(O2)-D-Phe-Arg-Trp-Dab)-NH2 (peptide)
peptide: RXMFRWX
HELM: PEPTIDE1{[ac].R.[O=C([C@H](CCCC(=O)[*:3])N[*:1])[*:2]].[CS(=O)(=O)CC[C@H](N[*:1])C(=O)[*:2]].[dF].R.W.[Dab].[am]}$PEPTIDE1,PEPTIDE1,3:R3-8:R3$$$V2.0
SMILES: CC(=O)N[C@@H](CCCNC(=N)N)C(=O)N[C@H]1CCCC(=O)NCC[C@@H](C(N)=O)NC(=O)[C@H](Cc2c[nH]c3ccccc23)NC(=O)[C@H](CCCNC(=N)N)NC(=O)[C@@H](Cc2ccccc2)NC(=O)[C@H](CCS(C)(=O)=O)NC1=O
B6: Ac-Arg-cyclo(Asp-Lys-D-Phe-Arg-Trp-Lys)-NH2 (peptide)
peptide: Ac-RDK[dF]RWK-NH2
modifications: lactam 2-7
notes: also called peptide No. 2
B7: Ac-Arg-cyclo(Asp-Phe-(3-(C(═O)-NH2))-D-Phe-Arg-Trp-Lys)-NH2 (peptide)
peptide: Ac-RD[Phe(3-CONH2)][dF]RWK-NH2
modifications: lactam 2-7
notes: also called peptide No. 49
B8: Ac-Arg-cyclo(Asp-Ser-D-Phe-Arg-Trp-Lys)-NH2 (peptide)
peptide: Ac-RDS[dF]RWK-NH2
modifications: lactam 2-7
notes: also called peptide No. 3
B9: Ac-Arg-cyclo(Asp-Asn-D-Phe-Arg-Trp-Lys)-OH (peptide)
peptide: Ac-RDN[dF]RWK-OH
modifications: lactam 2-7
notes: also called peptide No. 56
B10: Ac-Arg-cyclo(Asp-Met-(O2)-D-Phe-Arg-Trp-Lys)-NH2 (peptide)
peptide: Ac-RD[Met(O2)][dF]RWK-NH2
modifications: lactam 2-7
notes: also called peptide No. 77
B11: Ac-Arg-cyclo(Asp-Phe(4-(C(═O)-NH2))-D-Phe-Arg-Trp-Lys)-NH2 (peptide)
peptide: Ac-RD[Phe(4-CONH2)][dF]RWK-NH2
modifications: lactam 2-7
notes: also called peptide No. 50
B12: Ac-Arg-cyclo(Asp-Gln-D-Phe-Arg-Trp-Lys)-OH (peptide)
peptide: Ac-RDQ[dF]RWK-OH
modifications: lactam 2-7
notes: also called peptide No. 57
B13: Ac-Arg-cyclo(Asp-Thr(Bzl)-D-Phe-Arg-Trp-Lys)-NH2 (peptide)
peptide: Ac-RD[Thr(Bzl)][dF]RWK-NH2
modifications: lactam 2-7
notes: also called peptide No. 14
B14: Ac-Arg-cyclo(Asp-Hyp(Bzl)-D-Phe-Arg-Trp-Lys)-OH (peptide)
peptide: Ac-RD[Hyp(Bzl)][dF]RWK-OH
modifications: lactam 2-7
notes: also called peptide No. 54
B15: Ac-Arg-cyclo(Asp-Lys-D-Phe-Cit-Trp-Lys)-NH2 (peptide)
peptide: Ac-RDK[dF][Cit]WK-NH2
modifications: lactam 2-7
notes: also called peptide No. 116
B16: n-C4H9-CO-cyclo(Glu-His-D-Phe-Arg-Dab)-Trp-NH2 (peptide)
peptide: Pentanoyl-EH[dF]R[Dab]W-NH2
modifications: lactam 1-5
notes: also called peptide No. 153
B17: Ac-Arg-Cyclo(Glu-Pro(4R-NH2)-D-Phe-Arg-Trp-Orn)-NH2 (peptide)
peptide: Ac-RE[Pro(trans-4-NH2)][dF]RW[Orn]-NH2
modifications: lactam 2-7
notes: also called peptide No. 112
B18: Ac-Arg-cyclo(Glu-Met(═O)-D-Phe-Arg-Trp-Orn)-NH2 (peptide)
peptide: Ac-RE[Met(O)][dF]RW[Orn]-NH2
modifications: lactam 2-7
notes: also called peptide No. 111

biological target: T1, human recombinant melanocortin-4 receptor (human, UniProt P32245 1-332); assay: competitive inhibition of [I125]-NDP-α-MSH, hMC4-R HEK-293 membranes
T1 construct: whole, on cells; cAMP assays used the whole cells; also called hMC4-R; MC4-R
Procedure: A competitive inhibition binding assay is performed using membrane homogenates prepared from HEK-293 cells that express recombinant hMC4-R, hMC3-R, or hMC5-R, and from B-16 mouse melanoma cells (containing endogenous MC1-R). In some instances, HEK-293 cells that express recombinant hMC1-R were employed. In the examples that follow, all MC3-R, MC4-R and MC5-R values are for human recombinant receptors. […] Membrane homogenates were incubated with 0.2 nM (for hMC4-R) 0.4 nM (for MC3-R and MC5-R) or 0.1 nM (for mouse B16 MC1-R or hMC1-R) [I¹²⁵]-NDP-α-MSH (Perkin Elmer) and increasing concentrations of test peptides of the present invention in buffer containing 25 mM HEPES buffer (pH 7.5) with 100 mM NaCl, 2 mM CaCl₂, 2 mM MgCl₂, 0.3 mM 1,10-phenanthroline, and 0.2% bovine serum albumin. After incubation for 60 minutes at 37° C., the assay mixture was filtered and the membranes washed three times with ice-cold buffer. Filters were dried and counted in a gamma counter for bound radioactivity. […] Maximal specific binding (100%) was defined as the difference in radioactivity (cpm) bound to cell membranes in the absence and presence of 1 μM NDP-α-MSH. […] Each assay was conducted in triplicate and the actual mean values are described, with results less than 0% reported as 0%. Ki values for test peptides of the present invention were determined using Graph-Pad Prism® curve-fitting software.
9.1 Peptides of the following structures were synthesized by the general methods described above, and averaged MC4-R Ki values for peptides were determined as indicated. […] Ki values marked “ND” were not determined.

T1 sequence (P32245 whole entry): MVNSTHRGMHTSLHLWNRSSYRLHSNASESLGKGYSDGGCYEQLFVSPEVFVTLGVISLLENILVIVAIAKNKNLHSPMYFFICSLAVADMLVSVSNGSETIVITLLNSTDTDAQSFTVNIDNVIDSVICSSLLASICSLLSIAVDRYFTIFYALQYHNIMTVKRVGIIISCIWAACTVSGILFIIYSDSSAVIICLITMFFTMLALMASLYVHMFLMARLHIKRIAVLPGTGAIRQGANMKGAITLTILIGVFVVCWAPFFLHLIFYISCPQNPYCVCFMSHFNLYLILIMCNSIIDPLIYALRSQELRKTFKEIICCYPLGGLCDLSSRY

Ki [nM] | Binder
4 | B1
0.4 | B2
0.6 | B3
20 | B4
4 | B5
30 | B6
15 | B7
172 | B8
100 | B9
7 | B10
30 | B11
115 | B12
1 | B13
3 | B14
873 | B15
365 | B16
6 | B17
9 | B18
